Experiments:
[1] = molecular target: T1, recombinant human desmoglein 3 (Dsg3) on ELISA plates (MBL) (human, UniProt P32926 50-615, limits assumed); assay: Dsg3 ELISA (MBL), soluble scFv, anti-HA detection
T1 construct: Commercial Dsg3 ELISA plate (MBL)
T1 sequence (looked up): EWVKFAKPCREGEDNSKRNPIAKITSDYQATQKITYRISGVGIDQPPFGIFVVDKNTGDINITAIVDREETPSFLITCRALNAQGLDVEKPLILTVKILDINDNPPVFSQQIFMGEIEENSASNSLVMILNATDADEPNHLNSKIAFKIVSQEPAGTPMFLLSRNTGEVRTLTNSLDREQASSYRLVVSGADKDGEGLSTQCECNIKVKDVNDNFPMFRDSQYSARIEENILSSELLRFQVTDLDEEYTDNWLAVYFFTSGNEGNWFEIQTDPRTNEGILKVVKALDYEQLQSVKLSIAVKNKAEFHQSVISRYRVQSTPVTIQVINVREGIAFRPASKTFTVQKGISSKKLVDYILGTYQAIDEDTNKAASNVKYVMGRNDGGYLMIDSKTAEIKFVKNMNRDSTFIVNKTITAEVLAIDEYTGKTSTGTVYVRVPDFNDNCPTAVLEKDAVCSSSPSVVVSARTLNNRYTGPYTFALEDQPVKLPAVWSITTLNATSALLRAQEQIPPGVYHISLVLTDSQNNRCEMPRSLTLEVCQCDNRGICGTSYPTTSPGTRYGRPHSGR

[2] = molecular target: T2, baculovirus-produced recombinant human Dsg4-EHis (human, UniProt Q86SJ6 50-631); assay: immunoprecipitation of Dsg4-EHis with scFv, anti-E tag immunoblot
T2 construct: not shown: E-tag and histidine tag
T2 sequence (looked up): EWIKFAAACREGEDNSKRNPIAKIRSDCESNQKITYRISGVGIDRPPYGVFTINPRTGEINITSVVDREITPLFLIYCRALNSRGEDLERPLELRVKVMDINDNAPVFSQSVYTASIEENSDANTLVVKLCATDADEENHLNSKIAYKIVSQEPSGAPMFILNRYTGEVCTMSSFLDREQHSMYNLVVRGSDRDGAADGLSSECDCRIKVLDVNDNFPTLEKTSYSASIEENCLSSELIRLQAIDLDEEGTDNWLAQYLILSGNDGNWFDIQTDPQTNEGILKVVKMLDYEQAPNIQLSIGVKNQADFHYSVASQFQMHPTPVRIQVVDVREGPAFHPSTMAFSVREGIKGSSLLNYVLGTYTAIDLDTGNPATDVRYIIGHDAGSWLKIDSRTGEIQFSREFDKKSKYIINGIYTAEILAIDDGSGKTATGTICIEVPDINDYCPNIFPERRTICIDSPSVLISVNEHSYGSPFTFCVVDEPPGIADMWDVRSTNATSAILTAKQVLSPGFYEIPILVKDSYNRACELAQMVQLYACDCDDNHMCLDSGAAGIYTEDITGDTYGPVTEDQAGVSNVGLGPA
Description: To determine whether anti-Dsg1 scFvs also bind Dsg4, baculovirus-produced recombinant human Dsg4-EHis and human Dsg1-EHis (“EHis” tag defined above) was used (Nagasaka et al., 2004 J. Clin. Invest 114:1484-1492.). Baculovirus-infected insect cell culture supernatants containing recombinant molecules were incubated with scFvs for 30 minutes and then immunoprecipitated with anti-HA agarose (Sigma-Aldrich) at 4° C. for 2 hours with gentle rotation. After washing with TBS-Ca, the immunoprecipitates were resuspended in Laemmli sample buffer, separated by SDS-PAGE, and transferred to nitrocellulose membranes (Bio-Rad Labratories). Membranes were probed with HRP-conjugated anti-E-tag antibody (1:2000 dilution, GE Healthcare Bio-Sciences).
Some pemphigus sera bind Dsg4, and this binding was due to antibodies against Dsg1 that cross react with Dsg4. To determine whether any of the anti-Dsg1 monoclonal antibodies crossreact with Dsg4, scFvs were used to immunoprecipitate recombinant Dsg4 containing a carboxy-terminal E-epitope tag, then identified its presence on an immunoblot stained with anti-E tag antibodies.

binding result [1]	binding result [2]	Binder
no binding	no binding	3-30/3h (scFv, VH3-30, VDJ12, VL gene 3h; pathogenic; also called PF1-8-15; VH3-30 clone) scFv: ELVLTQPPSVPVAPGQTANISCGGNNIGRQTVHWYQQKPGQAPVLVVFDDSDRPAGIPERFSGSNSGNTATLTISRVEAGDEADYYCQVWDSSSDHVVFGGGTQLTVLGGGSSRSSSSGGGGSGGGGQVQLVQSGGGVVQSGRSLRLSCAASGFTFSDYAMHWVRQAPGKGLEWVAVISHGGTKKYTGDSVKGRFIISRDNSKNTVFLQMNSLRVEDTAVYYCARDRVEGYVWGGTFDHWGQGTPVTVSS
no binding	no binding	1-18/L12 (scFv, VH1-18, VDJ1, VL gene L12; also called PF1-2-6) scFv: ELQMTQSPSTLSASVGDRVTITCRASQGISNWLAWYQQKPGKAPKLLIHKASSLESGVPSRFSGSGSGTEFTLTISSLQPDDFATYYCQQYYTYPLTFGGGTKVEIKGGSSRSSSSGGGGSGGGGQVQLVQSGAEVKKPGASVKVSCKASGYTFTNYGITWVRQAPGQGLEWMGWISVYNGDTKYAQKLQGRVTMTTDTPTNTVYMELRSLRSDDTAVYYCARGYGSGNWDYWGQGTLVTVSS
